The record followed here is patent publication US20220194999A1.

The test addresses HLA-A*02:01 class I complex (conditional p*HLA*02:01, biotinylated heavy chain with beta2-microglobulin) (human). The experiment in a line: UV peptide exchange, HLA class I ELISA, % of Pos peptide. The note with it: remark: other sources report otherwise. On the technique in general: An ELISA detects its analyte on a solid surface through an enzyme-linked reagent.

B1: KRAS.G12C mutant peptide … (peptide)
peptide: LVVVGACGV
modifications: here or on the partner: biotinylated heavy chain
B1 displayed an Average % of 7%, an Exch I (%) of 6.5%, an Exch II (%) of 7.5% and an average relative binding (%) of less than 15%.

B2: KRAS.G12V mutant peptide … (peptide)
peptide: LVVVGAVGV
modifications: here or on the partner: biotinylated heavy chain
In turn, B2 registered an Average % of 4.5%, an Exch I (%) of 4.3%, an Exch II (%) of 4.6% and an average relative binding (%) of less than 15%.
